Results reported in article doi:10.1101/2023.06.02.543398 (bioRxiv, 2023).
Ends that are not written are not given here.

B1: MAP7 MT-binding domain (MTBD), residues 59-170 (domain or fragment)
chain: PVLRVDDRQRLARERREEREKQLAAREIVWLEREERARQHYEKHLEERKKRLEEQRQKEERRRAAVEEKRRQRLEEDKERHEAVVRRTMERSQKPKQKHNRWSWGGSLHGSP

Legend:
[1] = target: Taxol-stabilized microtubules from lyophilized tubulin (Cytoskeleton, Inc.) (UniProt P02550 1-451; P02554 1-445); experiment: ITC
[2] = target: B1; experiment: fluorescence polarisation

Sequence of Taxol-stabilized microtubules from lyophilized tubulin (Cytoskeleton, Inc.) (P02550 whole entry, chain 1 of 2): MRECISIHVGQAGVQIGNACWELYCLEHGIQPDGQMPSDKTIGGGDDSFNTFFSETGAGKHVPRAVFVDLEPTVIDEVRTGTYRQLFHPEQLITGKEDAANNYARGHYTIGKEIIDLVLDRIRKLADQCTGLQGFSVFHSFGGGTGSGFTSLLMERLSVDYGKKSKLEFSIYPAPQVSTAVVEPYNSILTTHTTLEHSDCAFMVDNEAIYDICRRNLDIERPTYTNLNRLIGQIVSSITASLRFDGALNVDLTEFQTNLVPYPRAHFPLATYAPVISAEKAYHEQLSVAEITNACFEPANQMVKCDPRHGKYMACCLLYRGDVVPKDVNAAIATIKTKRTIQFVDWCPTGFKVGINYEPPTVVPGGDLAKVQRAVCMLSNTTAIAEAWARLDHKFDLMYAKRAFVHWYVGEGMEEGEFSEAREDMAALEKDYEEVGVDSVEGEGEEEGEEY
Sequence of Taxol-stabilized microtubules from lyophilized tubulin (Cytoskeleton, Inc.) (P02554 whole entry, chain 2 of 2): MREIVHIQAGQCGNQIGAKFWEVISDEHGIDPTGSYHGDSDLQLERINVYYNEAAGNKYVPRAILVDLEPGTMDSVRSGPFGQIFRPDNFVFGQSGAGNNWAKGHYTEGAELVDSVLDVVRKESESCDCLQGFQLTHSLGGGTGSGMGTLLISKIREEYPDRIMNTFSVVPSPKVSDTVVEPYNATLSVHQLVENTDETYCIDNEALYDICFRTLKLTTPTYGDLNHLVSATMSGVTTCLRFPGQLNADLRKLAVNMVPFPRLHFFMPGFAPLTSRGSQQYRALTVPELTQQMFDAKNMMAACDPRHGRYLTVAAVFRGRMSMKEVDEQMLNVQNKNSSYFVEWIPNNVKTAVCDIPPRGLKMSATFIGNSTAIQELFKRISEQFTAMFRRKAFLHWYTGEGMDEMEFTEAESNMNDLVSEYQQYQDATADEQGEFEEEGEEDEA

| Binder | Kd [1] [nM] | stoichiometry N [1] | Kd [2] [µM] |
| --- | --- | --- | --- |
| B1 | 940 | 0.51 ± 0.09 MAP7 MTBD to tubulin |  |
| SVEGEGEEEGEEY (also: NHS-fluorescein label, position not given here) [NHS-fluorescein-labelled α-tubulin carboxy-terminal tail peptide] |  |  | 91.3 ± 17.5 |
